B1: Biotin-RNA3 (A24 DNA) (XNA)
strand: AAAAAAAAAAAAAAAAAAAAAAAA
modifications: 2'-deoxy A substitutions, about 50% by design (positions in Table S2/Fig. 3A not in material)
B2: Biotin-RNA5 (A24 2'-MOE) (XNA)
strand: AAAAAAAAAAAAAAAAAAAAAAAA
modifications: 2'-O-methoxyethyl A, about 50% by design (positions in Table S2/Fig. 3A not in material)

Biological target: PABP (hPABPC1) (human, UniProt P11940 1-636)
Experiment: SPR

PABP (hPABPC1), sequence (P11940 whole entry): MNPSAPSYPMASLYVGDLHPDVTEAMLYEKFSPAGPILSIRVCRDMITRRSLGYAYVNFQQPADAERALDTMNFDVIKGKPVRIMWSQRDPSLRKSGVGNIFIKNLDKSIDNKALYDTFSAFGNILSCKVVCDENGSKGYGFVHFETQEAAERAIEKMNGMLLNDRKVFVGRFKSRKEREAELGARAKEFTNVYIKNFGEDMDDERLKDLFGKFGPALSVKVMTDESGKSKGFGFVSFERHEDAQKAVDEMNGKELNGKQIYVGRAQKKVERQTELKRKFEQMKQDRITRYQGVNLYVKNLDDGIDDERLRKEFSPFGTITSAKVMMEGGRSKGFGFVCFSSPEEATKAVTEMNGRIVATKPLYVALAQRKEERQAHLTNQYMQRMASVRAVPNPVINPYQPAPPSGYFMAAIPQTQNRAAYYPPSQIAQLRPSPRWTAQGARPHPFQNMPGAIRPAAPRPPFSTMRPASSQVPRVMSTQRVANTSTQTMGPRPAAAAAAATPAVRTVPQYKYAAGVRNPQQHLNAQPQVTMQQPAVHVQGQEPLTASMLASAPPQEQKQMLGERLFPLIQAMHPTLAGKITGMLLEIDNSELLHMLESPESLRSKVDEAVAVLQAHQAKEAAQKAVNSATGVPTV

Binding result, no binding:
B1
AAAAAAAAAAAAAAAAAAAAAAAA (XNA, 2'-O-methyl A, 50% substitution (positions in Table S2/Fig. 3A not in material)) [Biotin-RNA4 (A24 2'-OMe)]
AAAAAAAAAAAAAAAAAAAAAAAA (XNA, 2'-fluoro A, 50% substitution (positions in Table S2/Fig. 3A not in material)) [Biotin-RNA6 (A24 2'-F)]
ACUGCGCUGAUUUUUUUUUUUUUUUUUUUUUUUUUUUUUUUUUUUUUUUU (ssRNA) [Biotin-RNA8 (U40)]
B2

— article PMC12381655
